Read-outs that look alike come from different tables or passages of the source. Values belong to the substance of their own block, whether it stands above or below them.
Experiments:
[1] = biological target: CAT-2200 lambda light chain V133L_S176D_Y178E (L1), FLAG-tagged; test: LCCA, SPR of light-chain tags
[2] = biological target: CAT-2200 lambda light chain S176E_Y178E (L1), FLAG-tagged; test: LCCA, SPR of light-chain tags
[3] = biological target: Pertuzumab kappa light chain S131R_V133G_S176R_T178A (L2), HA-tagged; test: LCCA, SPR of light-chain tags
[4] = biological target: Pertuzumab kappa light chain S131K_V133G_S176R_T178A (L2), HA-tagged; test: LCCA, SPR of light-chain tags
[5] = biological target: Pertuzumab kappa light chain S131R_V133G_S176R_T178A (L2), HA-tagged; test: LCCA, SPR of light-chain tags; remark: listed apart in the source
[6] = biological target: Pertuzumab kappa light chain S131K_V133G_S176R_T178A (L2), HA-tagged; test: LCCA, SPR of light-chain tags; remark: listed apart in the source
[7] = biological target: CAT-2200 lambda light chain V133L_S176D_Y178E (L1), FLAG-tagged; test: LCCA, SPR of light-chain tags; remark: listed apart in the source
[8] = biological target: CAT-2200 lambda light chain S176E_Y178E (L1), FLAG-tagged; test: LCCA, SPR of light-chain tags; remark: listed apart in the source
[9] = biological target: Pertuzumab kappa light chain S131R_V133T_L135K_T178S; test: LCCA, SPR
[10] = biological target: Pertuzumab kappa light chain V133G_S176D_T178E; test: LCCA, SPR
[11] = biological target: CAT-2200 lambda light chain E124Q_T131R; test: LCCA, SPR
[12] = biological target: Pertuzumab kappa light chain V133G_S176D_T180E; test: LCCA, SPR
[13] = biological target: CAT-2200 lambda light chain E124Q_T131K; test: LCCA, SPR
[14] = biological target: CAT-2200 lambda light chain E124Q_T131R; test: LCCA, SPR; remark: listed apart in the source
[15] = biological target: Pertuzumab kappa light chain V133G_S176D_T178E; test: LCCA, SPR; remark: listed apart in the source
[16] = biological target: Pertuzumab kappa light chain V133G_S176D_T180E; test: LCCA, SPR; remark: listed apart in the source
[17] = biological target: Pertuzumab kappa light chain V133G_L135W_S176D_T180E; test: LCCA, SPR tag read-out
[18] = biological target: Pertuzumab kappa light chain V133G_L135W_S176D_T180E; test: LCCA, SPR tag read-out; remark: listed apart in the source
[19] = biological target: CAT-2200 lambda light chain K129T_V133D; test: LCCA, SPR
[20] = biological target: Pertuzumab kappa light chain Q124K_V133A_T178R; test: LCCA, SPR
[21] = biological target: Pertuzumab kappa light chain Q124R_Q160K_T178R (L2), HA-tagged; test: LCCA, SPR of light-chain tags
[22] = biological target: Pertuzumab kappa light chain Q124R_T178R (L2), HA-tagged; test: LCCA, SPR of light-chain tags
[23] = biological target: Pertuzumab kappa light chain Q124R_Q160K_T178R (L2), HA-tagged; test: LCCA, SPR of light-chain tags; remark: listed apart in the source
[24] = biological target: Pertuzumab kappa light chain Q124R_T178R (L2), HA-tagged; test: LCCA, SPR of light-chain tags; remark: listed apart in the source
[25] = biological target: Pertuzumab kappa light chain S131K_T178S; test: LCCA, SPR
[26] = biological target: Pertuzumab kappa light chain S131K_S176A_T178S; test: LCCA, SPR
[27] = biological target: Pertuzumab kappa light chain S131K_T178S; test: LCCA, SPR; remark: listed apart in the source
[28] = biological target: Pertuzumab kappa light chain S131K_S176A_T178S; test: LCCA, SPR; remark: listed apart in the source
[29] = biological target: CAT-2200 lambda light chain V133D_Y178T; test: LCCA, SPR
[30] = biological target: CAT-2200 lambda light chain S176A_Y178W (L1), FLAG-tagged; test: LCCA, SPR of light-chain tags
[31] = biological target: Pertuzumab kappa light chain S176A_T178A (L2), HA-tagged; test: LCCA, SPR of light-chain tags

H2L2:H2L1 normalized median scalar value ln(r1/f1) [10]: 0.77 | H2L2:H2L1 normalized median ratio [11]: 27% | H2L2:H2L1 normalized median ratio [12]: 72% | H2L2:H2L1 normalized median scalar value ln(r1/f1) [12]: 0.95 | H2L2:H2L1 normalized median ratio [13]: 28% | H2L2:H2L1 normalized median ratio [14]: 33% | H2L2:H2L1 normalized median scalar value ln(r1/f1) [15]: 0.69 | H2L2:H2L1 normalized median ratio [16]: 73% | H2L2:H2L1 normalized median scalar value ln(r1/f1) [16]: 0.97 | H2L2:H2L1 median scalar value [17]: -0.41 ln(ratio) | H2L2:H2L1 median scalar value [18]: -0.52 ln(ratio)
Substance: Pertuzumab Fab heavy chain L124R_Q179K

H2L2:H2L1 normalized median ratio [19]: 8% | H2L2:H2L1 normalized median ratio [20]: 92% | H2L2:H2L1 normalized median scalar value ln(r1/f1) [20]: 2.51
Substance: Pertuzumab Fab heavy chain L124W_L143E_K145T_Q179E

H2L2:H2L1 normalized median scalar value ln(r1/f1) [21]: 2.62 | H2L2:H2L1 normalized median scalar value ln(r1/f1) [22]: 2.22 | H2L2:H2L1 normalized median scalar value ln(r1/f1) [23]: 3.21 | H2L2:H2L1 normalized median scalar value ln(r1/f1) [24]: 3.16
Substance: Pertuzumab Fab heavy chain L143E_K145T_Q179E (H2)

H2L2:H2L1 normalized median scalar value ln(r1/f1) [25]: 0.84 | H2L2:H2L1 normalized median scalar value ln(r1/f1) [26]: 1.51 | H2L2:H2L1 normalized median scalar value ln(r1/f1) [27]: -0.25 | H2L2:H2L1 normalized median ratio [28]: 54% | H2L2:H2L1 normalized median scalar value ln(r1/f1) [28]: 0.15 | H2L2:H2L1 normalized median ratio [29]: 46%
Substance: Pertuzumab Fab heavy chain L143T_S188D

More lines, now with the values behind:

Substance: Pertuzumab Fab heavy chain L124E_K145T_Q179E_S188W (H2)
H2L2:H2L1 normalized median ratio (H2L1 share) [1]: 12% | H2L2:H2L1 normalized median ratio (H2L1 share) [2]: 15% | H2L2:H2L1 normalized median ratio, H2L2 share [3]: 89% | H2L2:H2L1 normalized median scalar value ln(r1/f1) [3]: 2.13 | H2L2:H2L1 normalized median ratio, H2L2 share [4]: 85% | H2L2:H2L1 normalized median scalar value ln(r1/f1) [4]: 1.77 | H2L2:H2L1 normalized median ratio, H2L2 share [5]: 92% | H2L2:H2L1 normalized median scalar value ln(r1/f1) [5]: 2.4 | H2L2:H2L1 normalized median ratio, H2L2 share [6]: 88% | H2L2:H2L1 normalized median scalar value ln(r1/f1) [6]: 1.98 | H2L2:H2L1 normalized median ratio (H2L1 share) [7]: 8% | H2L2:H2L1 normalized median ratio (H2L1 share) [8]: 11%

Substance: Pertuzumab Fab heavy chain L124E_L143E_K145T
H2L2:H2L1 normalized median scalar value ln(r1/f1) [9]: 0.62

Substance: Pertuzumab Fab heavy chain S186L_S188W (H2)
H2L2:H2L1 normalized median ratio (H2L1 share) [30]: 33% | H2L2:H2L1 normalized median ratio, H2L2 share [31]: 67% | H2L2:H2L1 normalized median scalar value ln(r1/f1) [31]: 0.7
